The target in one assay is T1, feline TNF alpha (feline, UniProt P19101 77-233).
T1 construct: Bought protein; also called R&D systems cat; No 2586FTCF
In words: ELISA, TNF alpha protein coated, Protein L-HRP detection. As for the experimental part:
(§1) The cross-reactivity profile of the five selected scFvs to TNF alpha homologs of other species than human beings was assessed using ELISA. The following recombinantly expressed TNF alpha proteins were investigated: rhesus macaque (R&D Systems, USA, cat. no. 1070-RM-025/CF), cynomolgus monkey (Sinobiological, cat.no. 90018 CNAE), canine (Kingfisher Biotech, USA, cat. no. RP0261D-025) and feline (R&D systems, cat. No, 2586FTCF), rabbit (Kingfisher, cat. no RPO429U), rat (Peprotech, cat. no 400-14) murine (Peprotech, cat. no 315-01A), guinea pig (R&D Systems, cat. no 5035-TG-025/CF), porcine (R&D Systems, cat. no 690-PT-025/CF). Briefly, proteins were coated at a concentration of 2 mcg/mL over night at 4° C. on Maxisorp 96-well microplates in PBS pH 7.2. After blocking with 5% non-fat dry milk, increasing concentrations of scFv (0.1, 0.3 and 1.0 mcg/mL) were added to the wells. Successful coating of every protein was separately confirmed with TNF alpha-specific control antibodies. Whereas scFv1 was detected by Protein L-HRP (Sigma-Aldrich, USA, cat. no. P3226), the full-length IgG control antibodies were detected by either Streptavidin-HRP (BD Pharmingen, USA, cat. no. 554060) or other eligible secondary antibodies labelled with HRP. The ELISA was developed with BM Blue POD substrate (Roche Applied Science) and the absorbance was measured at 450 nm. The cross-reactivity of scFvs 1-5 was compared to the scFv DLX2481. […] The scFv DLX2481 recognized only recombinant human TNF alpha. In addition, the cross-reactivity of scFv1 to TNF family members was measured by a direct ELISA with coated recombinant human lymphotoxin α2/β1 (R&D systems, USA, cat. No 679-TX-010/CF), recombinant human lymphotoxin α2/β1 (R&D systems, cat. No 678-LY-010/CF), recombinant human CD40 ligand/TNFSF5 (R&D systems, cat. No. 6420-CL-025/CF) and recombinant human TNF beta/TNFSF1 (R&D systems, cat.
Background: In an ELISA, binding on a coated surface is turned into a signal by an enzyme label.

The next assay deals with T2, canine TNF alpha (canine, UniProt P51742 77-233).
T2 construct: Bought protein; also called dog TNF alpha; Kingfisher Biotech cat. no; RP0261D-025
T2 sequence (P51742 77-233 limits assumed): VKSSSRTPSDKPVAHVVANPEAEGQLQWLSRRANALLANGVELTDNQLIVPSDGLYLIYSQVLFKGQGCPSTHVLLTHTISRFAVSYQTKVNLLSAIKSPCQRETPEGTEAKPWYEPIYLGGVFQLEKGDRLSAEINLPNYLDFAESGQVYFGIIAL
Described as above. On the procedure:
as §1

A further assay has as its target T3, rhesus macaque TNF alpha (rhesus macaque, UniProt P48094 77-233).
T3 construct: Bought protein; also called R&D Systems cat. no; 1070-RM-025/CF
The description is as above. On the procedure: as §1

In assay [1] the target is T4, cynomolgus monkey TNF alpha (cynomolgus monkey, UniProt P79337 77-233).
T4 construct: Bought protein; also called Sinobiological cat. no; 90018 CNAE
T4 sequence (P79337 77-233 limits assumed): as the sequence (P51742 77-233 limits assumed) above, with K2R, E21Q, S30N, L37V, I49V, D53E, T72N, F83I, T109A, N140D counted along it
Described as above. As for the experimental part: as §1

The target in assay [2] is T5, recombinant human lymphotoxin α2/β1 (R&D systems, cat. No 678-LY-010/CF) (human, UniProt P01374 35-205; Q06643 49-244, limits assumed).
T5 construct: This second one is probably α1/β2, so copy numbers are left open; also called second lymphotoxin preparation
T5 sequence (looked up) 1: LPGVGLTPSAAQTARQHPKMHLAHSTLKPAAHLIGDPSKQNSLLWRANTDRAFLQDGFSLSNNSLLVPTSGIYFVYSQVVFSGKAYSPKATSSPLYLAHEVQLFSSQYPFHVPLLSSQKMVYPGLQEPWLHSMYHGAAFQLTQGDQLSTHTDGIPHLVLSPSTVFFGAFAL
T5 sequence (looked up) 2: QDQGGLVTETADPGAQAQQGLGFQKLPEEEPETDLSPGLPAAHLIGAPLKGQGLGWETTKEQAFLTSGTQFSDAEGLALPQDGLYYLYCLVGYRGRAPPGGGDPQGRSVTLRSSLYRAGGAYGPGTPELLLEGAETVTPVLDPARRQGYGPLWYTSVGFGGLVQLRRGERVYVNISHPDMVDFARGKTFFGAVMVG
In words: direct ELISA, protein coated. On the procedure: as §1

The target in assay [3] is T6, recombinant human CD40 ligand/TNFSF5 (human, UniProt P29965 108-261, limits assumed).
T6 construct: Bought protein; also called R&D systems cat; No. 6420-CL-025/CF
T6 sequence (looked up): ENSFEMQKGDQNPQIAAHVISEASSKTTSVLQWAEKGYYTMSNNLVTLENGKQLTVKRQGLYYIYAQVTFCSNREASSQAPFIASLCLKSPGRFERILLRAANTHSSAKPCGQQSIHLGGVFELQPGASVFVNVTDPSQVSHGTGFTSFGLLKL
In words: direct ELISA, protein coated. As for the experimental part: as §1

Assay [4] has as its target T7, recombinant human lymphotoxin α2/β1 (R&D systems, cat. No 679-TX-010/CF) (human, UniProt P01374 35-205; Q06643 49-244, limits assumed).
T7 construct: Bought heterotrimer; also called human lymphotoxin alpha2/beta1
T7 sequence (looked up) 1: T5 sequence (looked up) 1
T7 sequence (looked up) 2: T5 sequence (looked up) 2
In words: direct ELISA, protein coated. As for the experimental part:
as §1

For assay [5], the target named is T8, recombinant human TNF beta/TNFSF1 (human, UniProt P01374 35-205, limits assumed).
T8 construct: Bought protein; also called R&D systems cat; No. 211-TB-010/CF
T8 sequence (looked up): T5 sequence (looked up) 1
In words: direct ELISA, protein coated. On the procedure:
as §1

The target in assay [6] is recombinant human (rh) TNF alpha (human, UniProt P01375 77-233, limits assumed). In words: cell-based or functional assay.
Chain of recombinant human (rh) TNF alpha (P01375 77-233 limits assumed): as the sequence (P51742 77-233 limits assumed) above, with K2R, E21Q, S30N, T44R, I49V, D53E, F83I, T109A, L138R, N140D counted along it
Assay [7] has as its target transmembrane (tm) human TNF alpha, A1-12 variant, on CHO cells (human, UniProt P01375 1-233). In words: cell-based or functional assay.

Results on two molecules are retold here after US20170107282A1 (CELL MEDICA SWITZERLAND, published 2017).

Chain of transmembrane (tm) human TNF alpha, A1-12 variant, on CHO cells (P01375 other isoform, or with tags, fused parts or gaps mutant limits assumed): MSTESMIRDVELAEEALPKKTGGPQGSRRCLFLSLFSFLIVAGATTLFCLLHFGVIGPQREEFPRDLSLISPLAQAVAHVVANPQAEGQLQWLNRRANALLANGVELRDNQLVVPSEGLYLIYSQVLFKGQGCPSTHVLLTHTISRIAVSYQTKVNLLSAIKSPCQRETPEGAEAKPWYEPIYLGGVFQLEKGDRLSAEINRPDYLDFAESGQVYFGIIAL
T3 sequence (P48094 77-233 limits assumed): as the sequence (P51742 77-233 limits assumed) above, with K2R, E21Q, S30N, I49V, D53E, T72N, F83I, T109A, N140D counted along it
T1 sequence (P19101 77-233 limits assumed): as the sequence (P51742 77-233 limits assumed) above, with V1L, K2R, I49K, K65T, T109A, A134T, N140A counted along it

B1: scFv1 (scFv)
scFv: EIVMTQSPSTLSASVGDRVIITCQASQSISSYLAWYQQKPGKAPKLLIYWASTLASGVPSRFSGSGSGTEFTLTISSLQPDDFATYYCQSYYYTSNNSDGFWAFGQGTKLTVLGGGGGSGGGGSGGGGSGGGGSEVQLVESGGGLVQPGGSLRLSCKASGIDFSNSGITWVRQAPGKGLEWVGYIYPGFGIRNYANSVRGRFTISRDTSKNTVYLQMNSLRAEDTAVYYCARDPIYASSSGYADIWGQGTLVTVSS
For the molecule B1, the binding result was “binds” with feline TNF alpha; “binds” with canine TNF alpha; “binds” with rhesus macaque TNF alpha; “binds” in assay [1]; “no binding (tested: 40 nM)” in [2]; “no binding (tested: 40 nM)” in assay [3]. The binding result in assay [4] and in [5] was “no binding (tested: 40 nM)” throughout. Moreover, the “IC50, inhibition of rhTNF alpha (1.4 pM) cytotoxicity on PK-15 cells” value in assay [6] stood at 30 pM. Moreover, the “IC50, inhibition of tmTNF alpha activity on HEK-Dual TNF alpha-sensitive reporter cells (luciferase)” value in assay [7] turned out to be 50 nM.

B2: positive control scFv DLX105 (scFv)
scFv: MADIVMTQSPSSLSASVGDRVTLTCTASQSVSNDVVWYQQRPGKAPKLLIYSAFNRYTGVPSRFSGRGYGTDFTLTISSLQPEDVAVYYCQQDYNSPRTFGQGTKLEVKRGGGGSGGGGSGGGGSSGGGSQVQLVQSGAEVKKPGASVKVSCTASGYTFTHYGMNWVRQAPGKGLEWMGWINTYTGEPTYADKFKDRFTFSLETSASTVYMELTSLTSDDTAVYYCARERGDAMDYWGQGTLVTVSS
With B2, the “IC50, inhibition of rhTNF alpha (1.4 pM) cytotoxicity on PK-15 cells” value in assay [6] stood at 260 pM. Besides, the “IC50, inhibition of tmTNF alpha activity on HEK-Dual TNF alpha-sensitive reporter cells (luciferase)” value in [7] worked out at 32 nM.
